From patent US20240124585A1 (SUTRO BIOPHARMA, published 2024) come the findings set out here.

Where a chain is given by its changes, count along the chain named.

For experiment [1], the target named is T1, human CD3 on T-cell lines (CD3-expressing Jurkat cells; HUT78 cells) (human, UniProt P07766 23-207).
T1 construct: On cells it stands in the CD3/TCR complex
The experiment in a line: flow cytometry, Jurkat cells. In general terms: A flow cytometer gives signals particle by particle.

The target in experiment [2] is T2, cynomolgus CD3 delta-epsilon heterodimer (Acro Cat #CDD-C52W4) (cynomolgus monkey, UniProt Q95LI8 22-105).
T2 construct: Bought; also called cyCD3DE
Briefly: single-point ELISA; signal on cyCD3DE over Fc. On the procedure: (§1) Following small-scale cell-free protein synthesis (60 μL reactions), each reaction was diluted 1:50 and tested for binding to CD3 protein by ELISA. Briefly, human CD3 delta-epsilon-Fc heterodimer (CD3DE-Fc, Acro Biosystems, Cat #CDD-H52WO), cynomolgus CD3 delta-epsilon heterodimer (CD3DE, Acro Cat #CDD-C52W4) and human IgG1 Fc (Acro Biosystems, Cat #FCC-H5214) were coated to 384-well Maxisorp plates in 0.2M sodium bicarbonate-carbonate pH 9.4 and blocked with […] in PBST (phosphate buffer saline, […], diluted from Teknova Cat #P2192). Antibodies expressed in CF were diluted 1:50 in 0.20% BSA in PBST and were incubated on the […] plates, washed, and detected with HRP-conjugated anti-human Fab antibodies (Jackson ImmunoResearch, West Grove, PA) and Pierce Pico Supersignal ELISA substrate (ThermoFisher Scientific).
A general note: ELISA stands for enzyme-linked immunosorbent assay.

Experiment [3] deals with T3, human CD3 epsilon (Acro Cat #CDE-H5223) (human, UniProt P07766 23-126).
T3 construct: Bought recombinant protein; also called rhCD3E
Briefly: SPR (Biacore), scFvFc captured, rhCD3E analyte. On the procedure: Anti-Fab or anti-Fc polyclonal antibodies were immobilized onto a CM5 chip (GE Life Sciences) using amine coupling chemistry (from Amine Coupling Kit, GE Life Sciences). The immobilization steps were carried out at a flow rate of 25 μl/min in 1×HBS-EP+ buffer (GE Life Sciences; 10× Stock diluted before use). The sensor surfaces were activated for 7 min with a mixture of NHS (0.05 M) and EDC (0.2 M). The Anti-Fab or Anti-Fc antibodies were injected over all 4 flow cells at a concentration of 25 μg/mL in 10 mM sodium acetate, pH 4.5, for 7 min. Ethanolamine (1 M, pH 8.5) was injected for 7 min to block any remaining activated groups.
Off-rate and kinetic binding experiments were performed at 25° C. using 1×HBS-EP+ buffer. Test and control antibodies were injected over the anti-Fab or anti-Fc surface at concentrations of 5-10 μg/mL for 12 seconds at a flow rate of 10 μL/min on flow cells 2, 3 and 4, followed by a buffer wash for 30 seconds at the same flow rate. […] After capturing ligand (antibody) on the anti-Fc or anti-Fab surface, the analyte (human CD3 epsilon, Acro Cat #CDE-H5223) was bound for 180 seconds, followed by a 600 second dissociation phase at a flow rate of 50 μL/min. Between each ligand capture and analyte binding cycle, regeneration was carried out using two injections of 10 mM Glycine pH 2.0 for 30 seconds at 30 μL/min, followed by a 30 second buffer wash step.
The data was fit with the Biacore T200 Evaluation software, using a 1-1 Langmuir binding model. KD (affinity, nM) was determined as a ratio of the kinetic rate constants calculated from the fits of the association and dissociation phases.
In general terms: In SPR one partner is held on a chip, and binding of the other changes the refractive index at the surface.

Experiment [4] has as its target T4, human CD3 delta-epsilon-Fc heterodimer (Acro Biosystems, Cat #CDD-H52WO) (human, UniProt P04234 22-105).
T4 construct: Bought; also called CD3DE-Fc; huCD3DE-Fc; not shown: Fc
Briefly: single-point ELISA; signal on huCD3DE-Fc over Fc. On the procedure: as §1

In experiment [5] the target is T3, human CD3 epsilon (Acro Cat #CDE-H5223). The experiment in a line: ELISA, coated antigen.
The target in the next experiment is T5, cynomolgus CD3 epsilon (cynomolgus monkey, UniProt Q95LI5 22-117, limits assumed).
T5 construct: Recombinant protein; also called cyno CD3E
T5 sequence: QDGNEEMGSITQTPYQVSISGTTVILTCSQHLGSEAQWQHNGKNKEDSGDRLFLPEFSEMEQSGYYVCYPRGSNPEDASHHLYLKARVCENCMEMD
Briefly: ELISA, coated antigen.

The target in another experiment is CD3-GE. Briefly: ELISA, coated antigen.
The target in experiment [6] is T1, human CD3 on T-cell lines …. The experiment in a line: flow cytometry; signal on CD3+ Jurkat over CD3- Jurkat RT3-T3.5 cells. On the procedure:
A high-throughput primary screen was performed to rapidly assess cell binding of antibodies produced in small-scale (60 μL) cell-free reactions. In this screen, four components are combined in equal volumes to a final volume of 100 μL/well in a U-bottom 96-well plate (Greiner Cat #650201) or flat bottom 384 well plate (Greiner Cat #781201). […] Plates are then incubated on ice for one hour. Cells are pelleted by spinning at 1500×g for 5 minutes and resuspended in assay buffer. High-throughput flow cytometry is then performed on resuspended cells on a FACS instrument (BD Biosciences FACS Canto II or BD Biosciences LSR II) and data is analyzed with FlowJo software. Antibody binding is assessed by the proportional level of secondary antibody signal (presumably due to binding to our antibody of interest) on Jurkat CD3-positive cells compared to the signal on Jurkat RT3.T3.5 CD3-negative cells.

The target of experiment [7] is T6, EpCAM on NCI-H1975 cells (UniProt P16422 24-314, limits assumed).
T6 sequence (looked up): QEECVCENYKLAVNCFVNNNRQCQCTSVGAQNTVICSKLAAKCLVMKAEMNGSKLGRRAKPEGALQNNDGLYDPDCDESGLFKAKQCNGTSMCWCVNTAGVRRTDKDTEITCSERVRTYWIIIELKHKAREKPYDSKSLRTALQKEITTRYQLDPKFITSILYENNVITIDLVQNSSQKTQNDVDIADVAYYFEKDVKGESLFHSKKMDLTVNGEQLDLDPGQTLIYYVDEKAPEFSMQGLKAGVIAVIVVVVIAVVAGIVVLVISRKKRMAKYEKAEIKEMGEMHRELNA
Briefly: cell-based or functional assay.

The target of experiment [8] is T6, EpCAM on NCI-H1975 cells. The experiment in a line: cell-based or functional assay. The source holds these as a separate data set.

T3 sequence (P07766 23-126 limits assumed): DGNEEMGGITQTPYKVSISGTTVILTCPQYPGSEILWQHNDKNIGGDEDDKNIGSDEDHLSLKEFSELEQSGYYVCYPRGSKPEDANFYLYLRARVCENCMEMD
T4 sequence (chain, as listed by the source mutant, chain 1 of 2): as the sequence (P07766 23-126 limits assumed) above
T4 sequence (P04234 22-105, stated change not applied, chain 2 of 2): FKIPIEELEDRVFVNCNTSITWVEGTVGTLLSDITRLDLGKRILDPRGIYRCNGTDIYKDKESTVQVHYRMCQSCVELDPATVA
T2 sequence (Q95LI8 22-105, stated change not applied, one chain of several): as the sequence (P04234 22-105, stated change not applied, chain 2 of 2) above, with I5V, N15K, I20V, S32T, D33N, I34N, T64A, S74N, V83L counted along it
T1 sequence (P07766 23-207 limits assumed): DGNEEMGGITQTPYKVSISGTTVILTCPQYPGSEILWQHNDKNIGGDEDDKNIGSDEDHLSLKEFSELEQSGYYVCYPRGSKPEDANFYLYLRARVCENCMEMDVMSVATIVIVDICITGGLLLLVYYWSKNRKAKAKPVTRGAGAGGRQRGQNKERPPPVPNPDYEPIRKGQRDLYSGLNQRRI

B1: SRP2037:A03 (scFv, not shown: small tags and cut ends)
scFv: EVQLVESGGGLVKPGGSLRLSCAASGFTFSKYAMNWVRQAPGKGLEWVARIRSKYNNYATYYADSVKDRFTISRDDSKNTAYLQINSLKTEDTAVYYCVRHGNFGNSYTSYWAYWGQGTPVTVSSGGGGSGGDGSGGGGSQTVVTQEPSLTVSPGGTVTLTCGSSTGAVTSGYYPNWLQQKPGQAPRGLIGGTKFLAPGTPARFSGSLLGGKAALTLSGVQPEDEAEYYCALWYSNRWVFGGGTQLTVT
notes: tested as scFvFc
As usually defined, the Kd is the equilibrium constant for the complex coming apart. A lower Kd goes with higher affinity. Usually koff stands for the rate constant with which the complex falls apart. A high value points to a short-lived complex. In experiment [1], B1 showed a Bmax of 4540 and a Kd of 0.16 nM. Also, the “cyCD3DE/Fc, ELISA S/N” value in experiment [2] came out at 62.1. In [3], this molecule displayed an equilibrium dissociation constant (Kd) of 1.23 nM and a koff of 0.000235 s⁻¹. The “huCD3DE-Fc/Fc, ELISA S/N” value in [4] is 55.1.

B2: SRP2037:A04 (scFv, not shown: small tags and cut ends)
scFv: B1 scFv with S30N, N79S, I85M, V99A, T109I, Y174H, Y234C
notes: tested as scFvFc
Consider B2, for which, in [1], the Bmax came to 4800 and the Kd was 1.7 nM. Besides, in experiment [2], the “cyCD3DE/Fc, ELISA S/N” value was determined as 19.3. For the same molecule, in [3], the affinity, expressed as Kd, was 0.367 nM and the koff was 3.27e-06 s⁻¹. Also, in experiment [4], the “huCD3DE-Fc/Fc, ELISA S/N” value was 14.7.

B3: SRP2037:A05 (scFv, not shown: small tags and cut ends)
scFv: B1 scFv with S30N, K78R, I85M, T90A, T109I
notes: tested as scFvFc
In experiment [1], B3 gave a Bmax of 5900 and a Kd of 0.12 nM. In addition, in experiment [2], the “cyCD3DE/Fc, ELISA S/N” value was 28.9. In [3], this molecule had a Kd of 0.712 nM and a koff of 0.000157 s⁻¹. For the same molecule, in experiment [4], the “huCD3DE-Fc/Fc, ELISA S/N” value stood at 21.2.

B4: SMP1913-F09 (antibody, V domains shown)
VH: not shown
VL: QTVVTQEPSLTVSPGGTVTLTCGSSTGAVTSGYYPNWFQQKPGQAPRGLIGGTKFLAPGTPARFSGSLLGGKAALTLSGVQPEDEAEYYCALWYSNRWVFGGGTQLTVTG
notes: human IgG1, lambda; also called hSP34-Hc1 + SP34-Lc3; hSP34-HC1+hSP34-LC3
The term EC50 denotes the midpoint of the concentration-response curve. As to B4, the results for the EC50 (in [5]; with cynomolgus CD3 epsilon; in the experiment with CD3-GE) were 28.9 nM, 35.6 nM and 1110 nM, respectively. For the same molecule, the entries for the “ELISA Bmax (RLU)” value (in [5]; in the experiment with cynomolgus CD3 epsilon; in the experiment with CD3-GE) were 1.62e+06 RLU, 1.57e+06 RLU and 1.7e+06 RLU, respectively. Also, the “FACS S/N (Jurkat/Jurkat RT3-T3.5 binding)” value in experiment [6] is 6.2.

B5: aEpCAM × hOKT3 (MT110/AMG110) (bispecific antibody)
chain: MELVMTQSPSSLTVTAGEKVTMSCKSSQSLLNSGNQKNYLTWYQQKPGQPPKLLIYWASTRESGVPDRFTGSGSGTDFTLTISSVQAEDLAVYYCQNDYSYPLTFGAGTKLEIKGGGGSGGGGSGGGGSEVQLLEQSGAELVRPGTSVKISCKASGYAFTNYWLGWVKQRPGHGLEWIGDIFPGSGNIHYNEKFKGKATLTADKSSSTAYMQLSSLTFEDSAVYFCARLRNWDEPMDYWGQGTTVTVSSGGGGSDVQLVQSGAEVKKPGASVKVSCKASGYTFTRYTMHWVRQAPGQGLEWIGYINPSRGYTNYADSVKGRFTITTDKSTSTAYMELSSLRSEDTATYYCARYYDDHYCLDYWGQGTTVTVSSGEGTSTGSGGSGGSGGADDIVLTQSPATLSLSPGERATLSCRASQSVSYMNWYQQKPGKAPKRWIYDTSKVASGVPARFSGSGSGTDYSLTINSLEAEDAATYYCQQWSSNPLTFGGGTKVEIK
Take B5: in the experiment with EpCAM on NCI-H1975 cells [7], the “Cell killing Donor #1 EC50 (pM)” value came out at 8.2 pM and the “Cell killing Donor #2 EC50 (pM)” value was 4.1 pM. For the same molecule, in the experiment with EpCAM on NCI-H1975 cells [8], the “T-cell mediated H1975 killing, EC50 (pM) Donor 1” value was determined as 8 pM and the “T-cell mediated H1975 killing, EC50 (pM) Donor 2” value came out at 4 pM.
